From patent US20200390853A1, “ACTIVE PEPTIDE FOR ENHANCING THE PHAGOCYTIC FUNCTIONS OF RETINAL PIGMENT EPITHELIUM AND A USE THEREOF” (Beijing Tongren Hospital, Capital Medical University, priority 2019, published 2020)

B1: Gas6-LamininG active peptide: sequence of EGF-LamininG functional domain of Gas6 protein, amino acid sequence SEQ ID NO.1 (protein)
chain: DQCTPNPCDRKGTQACQDLMGNFFCLCKAGWGGRLCDKDVNECSQENGGCLQICHNKPGSFHCSCHSGFELSSDGRTCQDIDECADSEACGEARCKNLPGSYSCLCDEGFAYSSQEKACRDVDECLQGRCEQVCVNSPGSYTCHCDGRGGLKLSQDMDTCEDILPCVPFSVAKSVKSLYLGRMFSGTPVIRLRFKRLQPTRLVAEFDFRTFDPEGILLFAGGHQDSTWIVLALRAGRLELQLRYNGVGRVTSSGPVINHGMWQTISVEELARNLVIKVNRDAVMKIAVAGDLFQPERGLYHLNLTVGGIPFHEKDLVQPINPRLDGCMRSWNWLNGEDTTIQETVKVNTRMQCFSVTERGSFYPGSGFAFYSLDYMRTPLDVGTESTWEVEVVAHIRPAADTGVLFALWAPDLRAVPLSVALVDYHSTKKLKKQLVVLAVEHTALALMEIKVCDGQEHVVTVSLRDGEATLEVDGTRGQSEVSAAQLQERLAVLERHLRSPVLTFAGGLPDVPVTSAPVTAFYRGCMTLEVNRRLLDLDEAAYKHSDITAHSCPPVEPAAA
modifications: the amino acid sequence of the active peptide
B2: Gas6 full-length proteins: Gas6 full-length proteins used as comparator (protein, UniProt Q14393 1-678, looked up)
chain: MAPSLSPGPAALRRAPQLLLLLLAAECALAALLPAREATQFLRPRQRRAFQVFEEAKQGHLERECVEELCSREEAREVFENDPETDYFYPRYLDCINKYGSPYTKNSGFATCVQNLPDQCTPNPCDRKGTQACQDLMGNFFCLCKAGWGGRLCDKDVNECSQENGGCLQICHNKPGSFHCSCHSGFELSSDGRTCQDIDECADSEACGEARCKNLPGSYSCLCDEGFAYSSQEKACRDVDECLQGRCEQVCVNSPGSYTCHCDGRGGLKLSQDMDTCEDILPCVPFSVAKSVKSLYLGRMFSGTPVIRLRFKRLQPTRLVAEFDFRTFDPEGILLFAGGHQDSTWIVLALRAGRLELQLRYNGVGRVTSSGPVINHGMWQTISVEELARNLVIKVNRDAVMKIAVAGDLFQPERGLYHLNLTVGGIPFHEKDLVQPINPRLDGCMRSWNWLNGEDTTIQETVKVNTRMQCFSVTERGSFYPGSGFAFYSLDYMRTPLDVGTESTWEVEVVAHIRPAADTGVLFALWAPDLRAVPLSVALVDYHSTKKLKKQLVVLAVEHTALALMEIKVCDGQEHVVTVSLRDGEATLEVDGTRGQSEVSAAQLQERLAVLERHLRSPVLTFAGGLPDVPVTSAPVTAFYRGCMTLEVNRRLLDLDEAAYKHSDITAHSCPPVEPAAA
modifications: full-length
notes: Gas6 full-length proteins used as comparator

Legend:
[1] = system: AKT phosphorylation level downstream of MerTK; assay: AKT phosphorylation level in RPE cells cultivated in vitro (Western blotting, pAKT/GAPDH); format: cell-based; conditions: 200 ng/ml and 800 ng/ml, 30 minutes, vs blank control
Procedure: Segmented cloning was conducted according to the functional domain of Gas6 protein, wherein the sequence of EGF-LamininG functional domain is the primary active peptide sequence (G3, named as Gas6-LamininG active peptide).

[2] = system: RPE cells; assay: Model of in vitro RPE phagocytosis (disc membrane uptake, laser confocal); format: cell-based; conditions: after 3 h of RPE phagocytosis, p<0.05 between groups

| Molecule | Akt phosphorylation level (relative gray value of pAKT/GAPDH) [1] | contents of disc membranes taken up (RPE phagocytosis capacity) [2] |
| --- | --- | --- |
| B1 | significantly upregulating Akt phosphorylation levels | an effect of enhancing the phagocytic functions of retinal pigment epithelium |
| B2 | significantly upregulating Akt phosphorylation levels |  |
